Measurements published in publication PMC7954794 (2021).

B1: S. cerevisiae Abp1 (full length; SH3 domain 535-592 mutated) / Hua2 (parent complex)
chain 1: MALEPIDYTTHSREIDAEYLKIVRGSDPDTTWLIISPNAKKEYEPESTGSSFHDFLQLFDETKVQYGLARVSPPGSDVEKIIIIGWCPDSAPLKTRASFAANFAAVANNLFKGYHVQVTARDEDDLDENELLMKISNAAGARYSIQTSSKQQGKASTPPVKKSFTPSKSPAPVSKKEPVKTPSPAPAAKISSRVNDNNDDDDWNEPELKERDFDQAPLKPNQSSYKPIGKIDLQKVIAEEKAKEDPRLVQKPTAAGSKIDPSSDIANLKNESKLKRDSEFNSFLGTTKPPSMTESSLKNDDDKVIKGFRNEKSPAQLWAERKAKQNSGNAETKAEAPKPEVPEDEPEGEPDVKDLKSKFEGLAASEKEEEEMENKFAPPPKKSEPTIISPKPFSKPQEPVKAEEAEQPKTDYKKIGNPLPGMHIEADNEEEPEENDDDWDDDEDEAAQPPLPSRNVASGAPVQKEEPEQEEIAPSLPSRNSIPAPKQEEAPEQAPEEEIEEEAEEAAPQLPSRSSAAPPPPPRRATPEKKPKENPWATAEYDYDAAEDNELTFVENDKIINIEFVDDDWWLGELEKDGSKGLFPSNYVSLGN
chain 2: MQQTKFGKMYLDHDSVVEYSEDEIVEADRITLGYKKRLSMIENQMRHLLEDFSLDVQQIEPILADLQKYYDAFLQLLQKRNKSLQCKRSTHQPVPSPMNSQTSTNAKVNLSGKLMKFQLNSVQKFDEENILRILQNKIEFEHYFQIDKGKKQKVLLLAVYQCLNGPTRLHKVLNIEGIIHNNSIRTILGKQVSSSKWTVFLYDVKLVLLAHRQDVPNLETSKMIVRYGDLFPCALYFKDHTAY

Variants of: B1
Assay: DHFR protein-fragment complementation in yeast (Abp1-DHFR F[1,2] x partner-DHFR F[3]), deep mutational scanning, second methotrexate selection vs reference; S. cerevisiae, DHFR-PCA selection in liquid with methotrexate at 30 C, two 72 h selections (the score uses the second); reference = the pre-selection culture

Variant | screen value
chain 1 MALEPIDYTTHSREIDAEYLKIVRGSDPDTTWLIISPNAKKEYEPESTGSSFHDFLQLFDETKVQYGLARVSPPGSDVEKIIIIGWCPDSAPLKTRASFAANFAAVANNLFKGYHVQVTARDEDDLDENELLMKISNAAGARYSIQTSSKQQGKASTPPVKKSFTPSKSPAPVSKKEPVKTPSPAPAAKISSRVNDNNDDDDWNEPELKERDFDQAPLKPNQSSYKPIGKIDLQKVIAEEKAKEDPRLVQKPTAAGSKIDPSSDIANLKNESKLKRDSEFNSFLGTTKPPSMTESSLKNDDDKVIKGFRNEKSPAQLWAERKAKQNSGNAETKAEAPKPEVPEDEPEGEPDVKDLKSKFEGLAASEKEEEEMENKFAPPPKKSEPTIISPKPFSKPQEPVKAEEAEQPKTDYKKIGNPLPGMHIEADNEEEPEENDDDWDDDEDEAAQPPLPSRNVASGAPVQKEEPEQEEIAPSLPSRNSIPAPKQEEAPEQAPEEEIEEEAEEAAPQLPSRSSAAPPPPPRRATPEKKPKENPWATAEYDYDAAEDNELTFVENDKIINIEFVDDAWWLGELEKDGSKGLFPSNYVSLGN [chain 1 D568A] | -1.81 DMS score: mean over two replicates of log2(f_test/f_ref + 0.5)/ln 2, minus the synonymous-codon median (not a log2 …
chain 1 MALEPIDYTTHSREIDAEYLKIVRGSDPDTTWLIISPNAKKEYEPESTGSSFHDFLQLFDETKVQYGLARVSPPGSDVEKIIIIGWCPDSAPLKTRASFAANFAAVANNLFKGYHVQVTARDEDDLDENELLMKISNAAGARYSIQTSSKQQGKASTPPVKKSFTPSKSPAPVSKKEPVKTPSPAPAAKISSRVNDNNDDDDWNEPELKERDFDQAPLKPNQSSYKPIGKIDLQKVIAEEKAKEDPRLVQKPTAAGSKIDPSSDIANLKNESKLKRDSEFNSFLGTTKPPSMTESSLKNDDDKVIKGFRNEKSPAQLWAERKAKQNSGNAETKAEAPKPEVPEDEPEGEPDVKDLKSKFEGLAASEKEEEEMENKFAPPPKKSEPTIISPKPFSKPQEPVKAEEAEQPKTDYKKIGNPLPGMHIEADNEEEPEENDDDWDDDEDEAAQPPLPSRNVASGAPVQKEEPEQEEIAPSLPSRNSIPAPKQEEAPEQAPEEEIEEEAEEAAPQLPSRSSAAPPPPPRRATPEKKPKENPWATALYDYDAAEDNELTFVENDKIINIEFVDDDWWLGELEKDGSKGLFPSNYVSLGN [chain 1 E540L] | -2.53 DMS score: mean over two replicates of log2(f_test/f_ref + 0.5)/ln 2, minus the synonymous-codon median (not a log2 …
chain 1 MALEPIDYTTHSREIDAEYLKIVRGSDPDTTWLIISPNAKKEYEPESTGSSFHDFLQLFDETKVQYGLARVSPPGSDVEKIIIIGWCPDSAPLKTRASFAANFAAVANNLFKGYHVQVTARDEDDLDENELLMKISNAAGARYSIQTSSKQQGKASTPPVKKSFTPSKSPAPVSKKEPVKTPSPAPAAKISSRVNDNNDDDDWNEPELKERDFDQAPLKPNQSSYKPIGKIDLQKVIAEEKAKEDPRLVQKPTAAGSKIDPSSDIANLKNESKLKRDSEFNSFLGTTKPPSMTESSLKNDDDKVIKGFRNEKSPAQLWAERKAKQNSGNAETKAEAPKPEVPEDEPEGEPDVKDLKSKFEGLAASEKEEEEMENKFAPPPKKSEPTIISPKPFSKPQEPVKAEEAEQPKTDYKKIGNPLPGMHIEADNEEEPEENDDDWDDDEDEAAQPPLPSRNVASGAPVQKEEPEQEEIAPSLPSRNSIPAPKQEEAPEQAPEEEIEEEAEEAAPQLPSRSSAAPPPPPRRATPEKKPKENPWATAEYGYDAAEDNELTFVENDKIINIEFVDDDWWLGELEKDGSKGLFPSNYVSLGN [chain 1 D542G] | 0.784 DMS score: mean over two replicates of log2(f_test/f_ref + 0.5)/ln 2, minus the synonymous-codon median (not a log2 …

Other lines, results leading:

screen value | Variant
-1.38 DMS score: mean over two replicates of log2(f_test/f_ref + 0.5)/ln 2, minus the synonymous-codon median (not a log2 … | chain 1 MALEPIDYTTHSREIDAEYLKIVRGSDPDTTWLIISPNAKKEYEPESTGSSFHDFLQLFDETKVQYGLARVSPPGSDVEKIIIIGWCPDSAPLKTRASFAANFAAVANNLFKGYHVQVTARDEDDLDENELLMKISNAAGARYSIQTSSKQQGKASTPPVKKSFTPSKSPAPVSKKEPVKTPSPAPAAKISSRVNDNNDDDDWNEPELKERDFDQAPLKPNQSSYKPIGKIDLQKVIAEEKAKEDPRLVQKPTAAGSKIDPSSDIANLKNESKLKRDSEFNSFLGTTKPPSMTESSLKNDDDKVIKGFRNEKSPAQLWAERKAKQNSGNAETKAEAPKPEVPEDEPEGEPDVKDLKSKFEGLAASEKEEEEMENKFAPPPKKSEPTIISPKPFSKPQEPVKAEEAEQPKTDYKKIGNPLPGMHIEADNEEEPEENDDDWDDDEDEAAQPPLPSRNVASGAPVQKEEPEQEEIAPSLPSRNSIPAPKQEEAPEQAPEEEIEEEAEEAAPQLPSRSSAAPPPPPRRATPEKKPKENPWATAEYDYDAAEDNELTFVENDKIINIEQVDDDWWLGELEKDGSKGLFPSNYVSLGN [chain 1 F564Q]
-0.964 DMS score: mean over two replicates of log2(f_test/f_ref + 0.5)/ln 2, minus the synonymous-codon median (not a log2 … | chain 1 MALEPIDYTTHSREIDAEYLKIVRGSDPDTTWLIISPNAKKEYEPESTGSSFHDFLQLFDETKVQYGLARVSPPGSDVEKIIIIGWCPDSAPLKTRASFAANFAAVANNLFKGYHVQVTARDEDDLDENELLMKISNAAGARYSIQTSSKQQGKASTPPVKKSFTPSKSPAPVSKKEPVKTPSPAPAAKISSRVNDNNDDDDWNEPELKERDFDQAPLKPNQSSYKPIGKIDLQKVIAEEKAKEDPRLVQKPTAAGSKIDPSSDIANLKNESKLKRDSEFNSFLGTTKPPSMTESSLKNDDDKVIKGFRNEKSPAQLWAERKAKQNSGNAETKAEAPKPEVPEDEPEGEPDVKDLKSKFEGLAASEKEEEEMENKFAPPPKKSEPTIISPKPFSKPQEPVKAEEAEQPKTDYKKIGNPLPGMHIEADNEEEPEENDDDWDDDEDEAAQPPLPSRNVASGAPVQKEEPEQEEIAPSLPSRNSIPAPKQEEAPEQAPEEEIEEEAEEAAPQLPSRSSAAPPPPPRRATPEKKPKENPWATAEYDYDAAEDNELTFVENDKISNIEFVDDDWWLGELEKDGSKGLFPSNYVSLGN [chain 1 I560S]
